Data as given in publication PMC8552062, “Contributions of UDP-Glucuronosyltransferases to Human Hepatic and Intestinal Metabolism of Ticagrelor and Inhibition of UGTs and Cytochrome P450 Enzymes by Ticagrelor and its Glucuronidated Metabolite” (Frontiers in Pharmacology, 2021).

Substrate: CCCSc1nc(N[C@@H]2C[C@H]2c2ccc(F)c(F)c2)c2nnn([C@@H]3C[C@H](OCCO)[C@@H](O)[C@H]3O)c2n1
Assay: Ticagrelor glucuronidation by recombinant human UGT1A4
Format: in vitro ADME
Conditions: other: recombinant UGT1A4, Michaelis-Menten kinetics; pH 7.4; 37.0 °C
Procedure: Ticagrelor glucuronidation was investigated in an in vitro incubation system by using HLM, HIM, and recombinant human UGTs. The incubation system consisted of enzyme sources (HLM, HIM, or human recombinant UGTs), various concentrations of ticagrelor (dissolved in 50% methanol, 1% v/v, 1, 2, 5, 10, 20, 50, 100, 200, 500 μM of final concentration), alamethicin (50 μg/mg protein), 5 mM MgCl2, 100 mM tris-HCL buffer (pH 7.4), and 5 mM UDPGA in a total volume of 100 μl. Alamethicin is a pore-forming polypeptide used to activate UGTs in HLM and HIM ([Fisher et al., 2000]). Preliminary studies were conducted to determine the optimal protein concentrations and incubation times. Linear conditions of ticagrelor-O-Glu formation from ticagrelor, i.e., HLM, 0.2 mg of protein/ml and 60 min, HIM, 0.2 mg of protein/ml and 60 min, and recombinant human UGTs, 0.2 mg of protein/ml and 60 min were selected. The incubation mixture without UDPGA was placed on ice for 15 min to activate UGT by alamethicin. After pre-incubation for 5 min at 37°C, the reactions were started by the addition of UDPGA. After another 60 min of incubation at 37°C, the reaction was terminated by adding 100 μl of acetonitrile containing internal standard (diazepam). The mixture vortexed for 2 min and then centrifuged at 14,000 rpm for 10 min at 4°C. The resulting supernatant was injected into a liquid chromatography tandem mass spectrometry (LC-MS/MS, Applied Biosystems/MDS Sciex, Foster City, CA) system for the detection of ticagrelor-O-Glu.
Kinetic analyses were performed using the mean values of triplicate determinations with either pooled HLM, HIM, or recombinant human UGTs. All data were analyzed by nonlinear regression analysis using the GraphPad Prism 6 (GraphPad Software Inc., CA, United States). Michaelis-Menten kinetics (Eq. 1) or substrate inhibition kinetics (Eq. 2) ([Houston and Kenworthy, 2000]) were tested to determine the optimal model for describing the data. […] Intrinsic clearance (CLint) was calculated by dividing Vmax by Km.

B1: recombinant human UGT1A4 (Homo sapiens) (protein)
chain: GKVLVVPTDGSPWLSMREALRELHARGHQAVVLTPEVNMHIKEEKFFTLTAYAVPWTQKEFDRVTLGYTQGFFETEHLLKRYSRSMAIMNNVSLALHRCCVELLHNEALIRHLNATSFDVVLTDPVNLCGAVLAKYLSIPAVFFWRYIPCDLDFKGTQCPNPSSYIPKLLTTNSDHMTFLQRVKNMLYPLALSYICHTFSAPYASLASELFQREVSVVDLVSYASVWLFRGDFVMDYPRPIMPNMVFIGGINCANGKPLSQEFEAYINASGEHGIVVFSLGSMVSEIPEKKAMAIADALGKIPQTVLWRYTGTRPSNLANNTILVKWLPQNDLLGHPMTRAFITHAGSHGVYESICNGVPMVMMPLFGDQMDNAKRMETKGAGVTLNVLEMTSEDLENALKAVINDKSYKENIMRLSSLHKDRPVEPLDLAVFWVEFVMRHKGAPHLRPAAHDLTWYQYHSLDVIGFLLAVVLTVAFITFKCCAYGYRKCLGKKGRVKKAHKSKTH
notes: purchased BD Gentest; host or cells: baculovirus-infected insect cells
Km: 10.28 µM | Vmax: 3.6e-07 µmol/min/mg | Vmax/Km: 0.04 µL/min/mg
